According to doi:10.1101/2024.12.31.630886:

How the values were obtained:
[1] = molecular target: IatT, GCN5-related N-acetyltransferase (GNAT) of the iat lasso peptide BGC (Actinosynnema mirum DSM 43827); test: ITC
[2] = molecular target: IatT, GCN5-related N-acetyltransferase (GNAT) of the iat lasso peptide BGC (Actinosynnema mirum DSM 43827); test: cryo-EM structure

| stoichiometry N (molar equivalent) [1] | stoichiometry N [2] | Substance |
| --- | --- | --- |
| 1 | – | mirusin B (compound 2), monoacetylated lasso peptide |
| 1 | – | mirusin C (compound 3), diacetylated lasso peptide |
| – | 14 | IatT, GCN5-related N-acetyltransferase (GNAT) of the iat lasso peptide BGC (enzyme) |
